B1: Sarcoplasmic reticulum histidine-rich calcium-binding protein (Homo sapiens), P23327 (parent)
chain: MGHHRPWLHASVLWAGVASLLLPPAMTQQLRGDGLGFRNRNNSTGVAGLSEEASAELRHHLHSPRDHPDENKDVSTENGHHFWSHPDREKEDEDVSKEYGHLLPGHRSQDHKVGDEGVSGEEVFAEHGGQARGHRGHGSEDTEDSAEHRHHLPSHRSHSHQDEDEDEVVSSEHHHHILRHGHRGHDGEDDEGEEEEEEEEEEEEASTEYGHQAHRHRGHGSEEDEDVSDGHHHHGPSHRHQGHEEDDDDDDDDDDDDDDDDVSIEYRHQAHRHQGHGIEEDEDVSDGHHHRDPSHRHRSHEEDDNDDDDVSTEYGHQAHRHQDHRKEEVEAVSGEHHHHVPDHRHQGHRDEEEDEDVSTERWHQGPQHVHHGLVDEEEEEEEITVQFGHYVASHQPRGHKSDEEDFQDEYKTEVPHHHHHRVPREEDEEVSAELGHQAPSHRQSHQDEETGHGQRGSIKEMSHHPPGHTVVKDRSHLRKDDSEEEKEKEEDPGSHEEDDESSEQGEKGTHHGSRDQEDEEDEEEGHGLSLNQEEEEEEDKEEEEEEEDEERREERAEVGAPLSPDHSEEEEEEEEGLEEDEPRFTIIPNPLDRREEAGGASSEEESGEDTGPQDAQEYGNYQPGSLCGYCSFCNRCTECESCHCDEENMGEHCDQCQHCQFCYLCPLVCETVCAPGSYVDYFSSSLYQALADMLETPEP

Variants of: B1
Settings: with ryr2_mouse Ryr2, E9Q401
ryr2_mouse Ryr2, E9Q401, sequence (E9Q401 whole entry): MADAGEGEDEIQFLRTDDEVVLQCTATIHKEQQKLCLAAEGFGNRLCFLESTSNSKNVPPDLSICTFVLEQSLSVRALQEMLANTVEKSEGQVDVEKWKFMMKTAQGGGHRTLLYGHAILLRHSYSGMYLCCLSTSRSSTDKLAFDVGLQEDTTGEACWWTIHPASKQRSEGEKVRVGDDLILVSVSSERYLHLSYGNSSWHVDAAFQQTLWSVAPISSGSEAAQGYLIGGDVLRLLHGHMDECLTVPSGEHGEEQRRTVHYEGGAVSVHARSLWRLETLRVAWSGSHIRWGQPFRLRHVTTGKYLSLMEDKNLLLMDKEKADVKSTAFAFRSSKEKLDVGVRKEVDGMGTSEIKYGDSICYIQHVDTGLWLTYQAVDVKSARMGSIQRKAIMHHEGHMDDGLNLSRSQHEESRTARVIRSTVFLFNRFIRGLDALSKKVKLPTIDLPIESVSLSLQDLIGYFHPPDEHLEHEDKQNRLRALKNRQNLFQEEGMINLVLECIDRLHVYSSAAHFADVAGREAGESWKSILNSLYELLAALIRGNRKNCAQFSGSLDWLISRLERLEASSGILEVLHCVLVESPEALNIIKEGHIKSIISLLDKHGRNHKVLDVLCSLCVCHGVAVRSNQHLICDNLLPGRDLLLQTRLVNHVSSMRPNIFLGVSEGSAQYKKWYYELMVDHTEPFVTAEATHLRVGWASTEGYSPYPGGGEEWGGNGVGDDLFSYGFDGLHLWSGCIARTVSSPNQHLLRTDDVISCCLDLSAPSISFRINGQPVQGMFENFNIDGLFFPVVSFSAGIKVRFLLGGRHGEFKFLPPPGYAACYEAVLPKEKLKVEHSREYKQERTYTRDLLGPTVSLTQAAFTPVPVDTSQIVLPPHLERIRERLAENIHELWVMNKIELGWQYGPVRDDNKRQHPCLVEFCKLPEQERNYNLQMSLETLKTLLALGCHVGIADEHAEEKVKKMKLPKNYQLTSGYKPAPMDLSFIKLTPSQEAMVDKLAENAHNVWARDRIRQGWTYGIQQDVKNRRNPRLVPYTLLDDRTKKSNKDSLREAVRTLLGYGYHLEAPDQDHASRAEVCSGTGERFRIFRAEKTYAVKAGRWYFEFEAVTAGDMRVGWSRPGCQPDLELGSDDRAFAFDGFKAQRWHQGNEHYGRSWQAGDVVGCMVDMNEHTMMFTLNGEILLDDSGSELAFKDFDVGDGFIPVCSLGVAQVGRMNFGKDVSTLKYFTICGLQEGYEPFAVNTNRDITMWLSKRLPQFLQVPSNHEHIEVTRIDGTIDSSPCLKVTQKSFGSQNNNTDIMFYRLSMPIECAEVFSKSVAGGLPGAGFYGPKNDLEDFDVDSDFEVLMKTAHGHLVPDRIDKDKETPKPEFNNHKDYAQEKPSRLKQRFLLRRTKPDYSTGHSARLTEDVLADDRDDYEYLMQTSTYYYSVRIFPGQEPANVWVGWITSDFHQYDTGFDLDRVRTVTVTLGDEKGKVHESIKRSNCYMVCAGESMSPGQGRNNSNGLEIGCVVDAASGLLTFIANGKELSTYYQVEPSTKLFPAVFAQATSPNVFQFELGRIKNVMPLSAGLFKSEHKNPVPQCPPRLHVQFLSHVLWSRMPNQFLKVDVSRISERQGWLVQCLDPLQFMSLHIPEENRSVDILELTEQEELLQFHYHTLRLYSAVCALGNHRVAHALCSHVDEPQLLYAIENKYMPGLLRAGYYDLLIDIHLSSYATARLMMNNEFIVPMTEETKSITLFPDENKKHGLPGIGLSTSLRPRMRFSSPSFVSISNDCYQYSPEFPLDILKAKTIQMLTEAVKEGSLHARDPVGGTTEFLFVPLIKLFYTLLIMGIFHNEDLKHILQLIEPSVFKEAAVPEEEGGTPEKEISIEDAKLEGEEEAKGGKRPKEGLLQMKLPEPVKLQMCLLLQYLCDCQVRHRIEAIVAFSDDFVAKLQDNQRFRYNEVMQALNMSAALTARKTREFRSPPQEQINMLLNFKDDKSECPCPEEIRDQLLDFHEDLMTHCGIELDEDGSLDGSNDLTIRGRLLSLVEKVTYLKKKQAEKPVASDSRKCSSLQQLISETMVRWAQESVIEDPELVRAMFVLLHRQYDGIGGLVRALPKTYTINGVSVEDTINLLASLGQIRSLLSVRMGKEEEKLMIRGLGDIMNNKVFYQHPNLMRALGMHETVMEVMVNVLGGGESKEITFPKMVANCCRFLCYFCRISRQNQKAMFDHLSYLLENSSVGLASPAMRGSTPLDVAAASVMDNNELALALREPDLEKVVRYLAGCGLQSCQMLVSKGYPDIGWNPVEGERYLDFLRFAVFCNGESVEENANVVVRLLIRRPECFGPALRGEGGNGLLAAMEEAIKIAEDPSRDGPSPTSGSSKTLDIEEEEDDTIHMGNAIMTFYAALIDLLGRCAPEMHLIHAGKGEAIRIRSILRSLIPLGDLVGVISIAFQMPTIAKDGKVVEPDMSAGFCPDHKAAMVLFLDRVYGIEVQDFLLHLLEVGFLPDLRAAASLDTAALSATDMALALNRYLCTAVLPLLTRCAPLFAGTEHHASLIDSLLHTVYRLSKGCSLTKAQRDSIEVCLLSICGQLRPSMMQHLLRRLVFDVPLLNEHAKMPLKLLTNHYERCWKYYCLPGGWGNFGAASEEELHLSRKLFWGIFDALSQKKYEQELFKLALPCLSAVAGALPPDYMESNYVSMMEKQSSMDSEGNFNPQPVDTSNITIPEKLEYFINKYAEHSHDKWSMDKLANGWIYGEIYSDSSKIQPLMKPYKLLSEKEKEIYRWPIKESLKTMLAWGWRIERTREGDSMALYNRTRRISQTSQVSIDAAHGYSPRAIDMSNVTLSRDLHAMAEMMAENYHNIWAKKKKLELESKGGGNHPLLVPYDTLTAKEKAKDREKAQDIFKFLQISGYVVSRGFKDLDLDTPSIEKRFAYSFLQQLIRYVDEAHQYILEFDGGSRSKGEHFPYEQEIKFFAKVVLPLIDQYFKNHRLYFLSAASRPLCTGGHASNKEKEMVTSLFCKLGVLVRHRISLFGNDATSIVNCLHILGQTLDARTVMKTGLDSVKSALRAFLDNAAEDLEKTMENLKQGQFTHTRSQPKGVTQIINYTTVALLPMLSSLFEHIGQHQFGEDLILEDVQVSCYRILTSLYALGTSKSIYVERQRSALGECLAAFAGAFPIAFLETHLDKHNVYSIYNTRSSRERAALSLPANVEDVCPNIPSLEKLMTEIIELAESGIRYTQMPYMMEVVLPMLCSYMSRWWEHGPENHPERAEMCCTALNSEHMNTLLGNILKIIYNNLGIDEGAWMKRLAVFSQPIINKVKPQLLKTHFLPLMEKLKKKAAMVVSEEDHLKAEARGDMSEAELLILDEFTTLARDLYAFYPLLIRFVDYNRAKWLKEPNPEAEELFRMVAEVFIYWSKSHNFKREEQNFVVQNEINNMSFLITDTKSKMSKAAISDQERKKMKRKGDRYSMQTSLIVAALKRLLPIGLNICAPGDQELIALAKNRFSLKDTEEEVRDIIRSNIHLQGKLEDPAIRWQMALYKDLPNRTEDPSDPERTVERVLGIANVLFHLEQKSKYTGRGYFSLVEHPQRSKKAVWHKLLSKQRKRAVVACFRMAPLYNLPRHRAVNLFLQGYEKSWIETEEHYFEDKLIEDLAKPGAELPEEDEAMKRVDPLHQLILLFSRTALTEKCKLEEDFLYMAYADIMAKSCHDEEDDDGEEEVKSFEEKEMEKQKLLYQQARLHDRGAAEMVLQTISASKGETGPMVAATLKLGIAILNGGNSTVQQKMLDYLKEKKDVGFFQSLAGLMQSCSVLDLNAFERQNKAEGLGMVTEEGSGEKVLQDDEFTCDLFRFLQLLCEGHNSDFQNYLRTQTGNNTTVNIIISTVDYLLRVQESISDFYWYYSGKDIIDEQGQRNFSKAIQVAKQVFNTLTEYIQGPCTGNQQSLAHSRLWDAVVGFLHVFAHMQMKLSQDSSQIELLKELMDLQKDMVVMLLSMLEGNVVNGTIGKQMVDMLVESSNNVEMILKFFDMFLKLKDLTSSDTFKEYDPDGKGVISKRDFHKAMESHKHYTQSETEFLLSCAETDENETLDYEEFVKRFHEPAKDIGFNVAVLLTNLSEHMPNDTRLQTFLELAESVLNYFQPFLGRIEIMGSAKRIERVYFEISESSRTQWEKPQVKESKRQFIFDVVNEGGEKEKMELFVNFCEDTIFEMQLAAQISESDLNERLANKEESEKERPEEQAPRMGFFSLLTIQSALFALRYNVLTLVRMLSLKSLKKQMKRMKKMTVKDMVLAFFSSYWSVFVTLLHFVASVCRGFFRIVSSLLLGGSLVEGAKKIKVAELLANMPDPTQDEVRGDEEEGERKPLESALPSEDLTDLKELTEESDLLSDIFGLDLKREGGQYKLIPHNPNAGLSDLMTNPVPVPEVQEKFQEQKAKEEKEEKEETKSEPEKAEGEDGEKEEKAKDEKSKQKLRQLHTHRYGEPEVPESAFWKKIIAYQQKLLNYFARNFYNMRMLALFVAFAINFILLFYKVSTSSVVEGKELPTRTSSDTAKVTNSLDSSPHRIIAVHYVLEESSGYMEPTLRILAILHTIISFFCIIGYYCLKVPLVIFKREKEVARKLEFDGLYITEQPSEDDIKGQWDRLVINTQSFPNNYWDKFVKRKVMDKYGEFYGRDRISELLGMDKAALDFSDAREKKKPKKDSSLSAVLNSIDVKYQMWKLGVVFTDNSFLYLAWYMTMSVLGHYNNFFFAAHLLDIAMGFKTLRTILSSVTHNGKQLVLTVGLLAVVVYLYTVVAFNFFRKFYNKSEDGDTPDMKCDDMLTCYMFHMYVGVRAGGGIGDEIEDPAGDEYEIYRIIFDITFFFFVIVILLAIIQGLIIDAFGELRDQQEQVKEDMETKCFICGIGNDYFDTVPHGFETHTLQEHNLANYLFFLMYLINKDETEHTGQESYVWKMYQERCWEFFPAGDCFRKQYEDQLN

effect of a mutation on the interaction | Variant
decreasing interaction strength | S96A

— IntAct's records for PubMed 24805197
